Source: patent publication US10456446B2, “Use of human small leucine zipper protein in osteogenesis procedure” (Korea University Research and Business Foundation, priority 2013, dated 2019)
“Also recorded” adds a separate entry of the source.

T1: PPARγ2 and PGC1α (Homo sapiens, UniProt P37231)
T1 construct: expressed in transfected cells; host or cells: 293T (PGC1α endogenous)
T1 sequence (P37231 1-505): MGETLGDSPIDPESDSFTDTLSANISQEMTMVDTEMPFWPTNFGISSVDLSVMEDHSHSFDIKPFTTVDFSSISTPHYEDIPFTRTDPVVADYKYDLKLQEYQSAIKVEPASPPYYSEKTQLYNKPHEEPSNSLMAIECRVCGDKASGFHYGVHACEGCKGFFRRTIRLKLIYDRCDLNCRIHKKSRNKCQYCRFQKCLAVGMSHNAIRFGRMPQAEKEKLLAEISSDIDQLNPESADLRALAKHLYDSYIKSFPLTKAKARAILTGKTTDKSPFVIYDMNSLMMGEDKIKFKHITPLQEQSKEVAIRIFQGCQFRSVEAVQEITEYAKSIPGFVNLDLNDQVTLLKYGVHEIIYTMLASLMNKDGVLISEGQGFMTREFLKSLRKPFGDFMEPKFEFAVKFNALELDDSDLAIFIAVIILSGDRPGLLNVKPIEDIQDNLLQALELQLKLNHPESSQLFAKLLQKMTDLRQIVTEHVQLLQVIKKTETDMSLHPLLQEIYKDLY

B1: sLZIP: human small leucine-zipper protein, isoform of LZIP, 354 amino acids, no transmembrane domain, GenBank FJ263669, SEQ ID NO: 1 (protein, listed as Homo sapiens)
chain: MELELDAGDQDLLAFLLEESGDLGTAPDEAVRAPLDWALPLSEVPSDWEVDDLLCSLLSPPASLNILSSSNPCLVHHDHTYSLPRETVSMDLESESCRKEGTQMTPQHMEELAEQEIARLVLTDEEKSLLEKEGLILPETLPLTKTEEQILKRVRRKIRNKRSAQESRRKKKVYVGGLESRVLKYTAQNMELQNKVQLLEEQNLSLLDQLRKLQAMVIEISNKTSSSSMYSSDTRGSLPAEHGVLSRQLRALPSEDPYQLELPALQSEVPKDSTHQWLDGSDCVLQAPGNTSCLLHYMPQAPSAEPPLEWPFPDLFSEPLCRGPILPLQANLTRKGGWLPTGSPSVILQDRYSG
B2: N domains of sLZIP: N-terminal deletion mutant of sLZIP (1-228) (protein)
chain: MELELDAGDQDLLAFLLEESGDLGTAPDEAVRAPLDWALPLSEVPSDWEVDDLLCSLLSPPASLNILSSSNPCLVHHDHTYSLPRETVSMDLESESCRKEGTQMTPQHMEELAEQEIARLVLTDEEKSLLEKEGLILPETLPLTKTEEQILKRVRRKIRNKRSAQESRRKKKVYVGGLESRVLKYTAQNMELQNKVQLLEEQNLSLLDQLRKLQAMVIEISNKTSSSS
modifications: left off: a dimerising Fc or GST

Tests used:
PPARγ2 = assay: GST / His pull-down and immunoprecipitation of sLZIP with PPARγ2; format: binding
Description: 293T cells were obtained and washed with cold PBS. The cells were re-suspended in an IP lysis buffer [25 mM of Tris-HCl (pH 7.4), 150 mM of NaCl, 1 mM of EDTA, 1% NP-40 and 5% glycerol, and a protease inhibitor]. A suspension was centrifuged at 16,000×g for 20 minutes at 4° C. Supernatants were collected and incubated with 0.5 μg of appropriate antibodies and 25 μl of protein A/G-agarose or a GST Sepharose 4B bead for 24 hours at 4° C. A protein complex was centrifuged at 1,000×g with a cold IP lysis buffer for 1 minute and washed five times. The final pellet was re-suspended in 50 μl of an SDS-sample buffer containing 5% β-mercaptoethanol and heated for 10 minutes at 100° C. A protein sample was isolated in SDS-PAGE (8 to 10%) and transferred to nitrocellulose membranes. Co-precipitated proteins were detected according to western blotting using specific antibodies.
In order to examine whether the transcriptional activity of PPARγ2 is regulated by interaction with sLZIP, interaction between sLZIP and PPARγ2 was examined. For this purpose, 293T cells were transfected with GST-sLZIP and Myc-PPARγ2. Cell lysates were obtained and GST pull-down analysis was performed using a glutathione 4B bead. A protein complex was analyzed in SDS-PAGE and then immunoblotted with specific antibodies (FIG. 2A). The 293T cells were transfected with GST-PPARγ2 and Flag-sLZIP, and identified according to GST-pull-down analysis (FIG. 2B). PPARγ2 was translated in vitro by a TNT translation system (Promega). His-sLZIP proteins were expressed in BL21 cells using an IPTG-inducement system. Purified His-sLZIP proteins were subjected to His pull-down analysis. Proteins bound to the bead were analyzed in SDS-PAGE, and then immunoblotted with anti-PPARγ2 and anti-His antibodies (FIG. 2C). GFP-PPARγ2 and Flag-sLZIP constructs were expressed in C3H10T1/2 cells, and analyzed using mouse anti-Flag and Texas Red-labeled anti-mouse antibodies under a fluorescence microscope. The nucleus was stained with DAPI (FIG. 2D).
Activation of many nuclear receptors depends on a supplement of coactivators. Therefore, a domain of sLZIP necessary for binding with PPARγ2 was examined. For this purpose, 293T cells were transfected with GST-full length sLZIP (1-354), N-terminal deletion mutant sLZIP (1-228), C-terminal deletion mutant sLZIP (229-354), CC-terminal deletion mutant sLZIP (297-354) and PPARγ2. Cell lysates were obtained and GST pull-down analysis was performed using a glutathione 4B bead. A protein complex was analyzed in SDS-PAGE, and then immunoblotted with specific antibodies (FIG. 3A). 293T cells were transfected with Flag-full length PPARγ2, full length PPARγ2, N-terminal deletion mutant PPARγ2 (1-310), C-terminal deletion mutants PPARγ2 (139-505) and GST-sLZIP. Cell lysates were obtained and GST pull-down analysis was performed. A protein complex was analyzed in SDS-PAGE, and then immunoblotted with anti-GST and anti-Flag antibodies (FIG. 3B).
For this purpose, 293T cells were transfected with GST-PPARγ2 and Flag-sLZIP and were treated or not treated with 10 nM of RZD for 24 hours. Cell lysates were obtained and GST pull-down analysis (FIG. 5A) and immunoprecipitation (FIG. 5B) were performed using a glutathione 4B bead. A protein complex was analyzed in SDS-PAGE, and immunoblotted with anti-GST and anti-Flag antibodies. GST-PARγ2 and Flag-sLZIP were expressed in the 293T cells, and the cells were treated with 10 nM of RZD according to time of day. The cell lysates were GST pull-down analyzed (FIG. 5C). 293T cells were transfected with GST-HDAC3 and Flag-sLZIP, and treated or not treated with 10 nM of RZD for 24 hours. The cell lysates were GST pull-down analyzed (FIG. 5D). Flag-sLZIP was expressed in the 293T cells, and the cells were treated with 10 nM of RZD for 24 hours. Immunoprecipitation analysis of the cell lysates was performed using anti-NCoR1 antibodies. […]

PPARγ2 and PGC1α = molecular target: T1, PPARγ2 and PGC1α; assay: GST pull-down, coactivator PGC1α on PPARγ2; format: binding; details: 10 nM RZD for 24 hours
Description: Therefore, in order to understand a regulation mechanism of sLZIP in the PPARγ2 transcriptional activity by binding to the FABP4 promoter region, an effect of sLZIP on the interaction between PPARγ2 and HDAC3 was examined. For this purpose, 293T cells were transfected with GST-HDAC3, Myc-PPARγ2 and Flag-sLZIP, and were treated or not treated with 10 nM of RZD for 24 hours. Cell lysates were subjected to GST pull-down analysis using a glutathione 4B bead, and a protein complex was analyzed in SDS-PAGE, and then immunoblotted with anti-GST, anti-Myc and anti-Flag antibodies (FIG. 6A). GST-HDAC3, GST-PPARγ2, Myc-PPARγ2, Flag-sLZIP and Ha-UB were expressed in the 293T cells, and the cells were treated with 10 nM of RZD for 24 hours. Cell lysates were subjected to GST pull-down analysis (FIG. 6B). GST-PPARγ2 and Flag-sLZIP were expressed in the 293T cells and treated with 10 nM of RZD for 24 hours. Cell lysates were subjected to GST pull-down analysis, and a protein complex was analyzed in SDS-PAGE, and then immunoblotted with anti-PGC1α, anti-GST and anti-Flag antibodies (FIG. 6C).

[1] = GST pull-down, transfected 293T cells

Row | Molecule | interaction with PPARγ2 (PPARγ2; [1]) | interaction with PPARγ2 (PPARγ2; GST pull-down, transfected 293T cells, listed as wild type sLZIP) | direct interaction with PPARγ2 (PPARγ2; His pull-down, purified His-sLZIP and in vitro translated PPARγ2) | interaction with PPARγ2 (PPARγ2; ligand treated (10 nM RZD), GST pull-down or immunoprecipitation) | interaction with PPARγ2 (PPARγ2; no stimulation with a ligand, GST pull-down) | complementing of coactivator PGC-la for PPARγ2 (PPARγ2 and PGC1α)
1 | B1 | PPARγ2 interacted with sLZIP | interacted with PPARγ2 | directly bound | dissociated from sLZIP; also recorded: dissociated from PPARγ2 in a time-dependent manner | interacted with PPARγ2 | inhibited
2 | B2 | not interacted with PPARγ2 |  |  |  |  | 
